Positions count from the first letter of the chain named. Read-outs that look alike come from different tables or passages of the source. A value given as a limit tells only on which side of the number the result lay.

In assay [1] the target is T1, human CD33 on primary human dendritic cells (human, UniProt P20138 18-364). The assay is described as follows: cell-based or functional assay.
Assay [2] addresses T1, human CD33 on primary human dendritic …. As to the kind of experiment: flow cytometry on primary human dendritic cells, antibody dilutions, fluorescent anti-human IgG secondary. How it is done:
The 7 humanized anti-CD33 antibodies of 6C7 were evaluated for binding to primary dendritic cells by flow cytometry, and binding was compared to that of an anti-CD33 6C7 chimeric antibody that contained the variable heavy chain sequence and the variable light chain sequence of anti-CD33 antibody 6C7. Monocytes were isolated from blood from healthy human donors using the RosetteSep™ monocyte isolation antibody cocktail (StemCell Technologies). The isolated monocytes were differentiated into dendritic cells with 100 ng/mL GM-CSF and 100 ng/mL IL-4 (Peprotech). Dendritic cells were incubated with dilutions of the anti-CD33 antibodies for 30 minutes on ice in the dark, followed by a 30-minute incubation with a fluorescently-conjugated anti-human IgG secondary antibody. Cells were washed twice in FACS buffer (PBS+2% FBS, 2 mM EDTA), and flow cytometry was performed on a BD FACS Canto. Data were analyzed using FlowJo software (Ashland, OR).

Assay [3] shares this target. The assay is described as follows: flow cytometry, primary human dendritic cells, 2 ug/mL.
Assay [4] has as its target T2, recombinant human CD33 protein (Sino Biologicals) (human, UniProt P20138 18-259).
T2 construct: Bought protein; also called recombinant CD33
The assay is described as follows: BLI (ForteBio), antibody on anti-human Fc sensor, CD33 10 nM. On the procedure:
Affinity parameters of the antibody variants for human CD33 were measured by BioLayer Interferometry in a ForteBio assay according to standard techniques (Estep et al. (2013) MAbs 5(2): 270-8) and were compared to those of the parental antibody (antibody 6C7H8) and the parental humanized antibody (antibody 6C71H5). Briefly, the antibodies were captured on anti-human Fc Biosensors (Pall ForteBio). Recombinant human CD33 (10 nM, Sino Biologicals) was then bound to the captured anti-CD33 surface (200 s association time, 1200 s dissociation time). Local fitting was used to extract association and dissociation rate constants (kₐ and kd, respectively) for each antibody. Apparent affinity constants (KD) were calculated from the ratio kd/kₐ.
In general terms: In BLI a coated tip is dipped into the sample, and binding shifts an interference pattern.

In assay [5] the target is T1, human CD33 on primary human dendritic …. The assay is described as follows: cell-based or functional assay. This is another data set of the same source.
The target is the same in assay [6]. As to the kind of experiment: cell-based or functional assay. This is another data set of the same source.
For assay [7], the target named is T2, recombinant human CD33 protein (Sino …). As to the kind of experiment: ELISA, plate coated with recombinant CD33. In general terms: In an ELISA, binding on a coated surface is turned into a signal by an enzyme label.
Assay [8] deals with T3, recombinant cynomolgus CD33 protein (NovoProtein) (cynomolgus).
T3 construct: Bought protein; also called cyno CD33
T3 sequence (chain, as listed by the source limits assumed): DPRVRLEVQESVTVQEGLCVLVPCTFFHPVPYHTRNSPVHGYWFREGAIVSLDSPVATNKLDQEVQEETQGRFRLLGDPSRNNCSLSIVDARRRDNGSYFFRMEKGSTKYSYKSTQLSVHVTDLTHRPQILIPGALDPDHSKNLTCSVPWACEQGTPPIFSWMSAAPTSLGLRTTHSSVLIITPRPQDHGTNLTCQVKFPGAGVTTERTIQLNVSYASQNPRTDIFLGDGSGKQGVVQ
The assay is described as follows: ELISA, plate coated with recombinant CD33.

T1 sequence (P20138 18-364): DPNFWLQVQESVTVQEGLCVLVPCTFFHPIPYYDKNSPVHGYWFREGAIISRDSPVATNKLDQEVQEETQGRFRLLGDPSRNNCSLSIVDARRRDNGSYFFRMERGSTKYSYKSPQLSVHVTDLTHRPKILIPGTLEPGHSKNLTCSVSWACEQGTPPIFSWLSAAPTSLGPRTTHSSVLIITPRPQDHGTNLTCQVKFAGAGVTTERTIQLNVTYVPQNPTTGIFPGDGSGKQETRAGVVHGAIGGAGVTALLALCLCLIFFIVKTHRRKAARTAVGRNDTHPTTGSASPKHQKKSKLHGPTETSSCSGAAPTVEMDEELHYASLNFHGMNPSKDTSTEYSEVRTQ
T2 sequence (P20138 18-259 limits assumed): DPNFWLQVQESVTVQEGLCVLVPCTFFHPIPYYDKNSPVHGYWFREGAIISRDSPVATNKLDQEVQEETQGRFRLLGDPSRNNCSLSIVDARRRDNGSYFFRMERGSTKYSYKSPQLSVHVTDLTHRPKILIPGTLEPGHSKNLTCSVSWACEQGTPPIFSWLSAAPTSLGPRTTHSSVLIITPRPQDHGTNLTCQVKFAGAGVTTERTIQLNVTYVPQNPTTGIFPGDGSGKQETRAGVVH

B1: 6C7H54 IgG2 (antibody)
heavy: EVQLVESGGGLVQPGGSLRLSCAGSGFTFSNYEMNWVRQAPGKGLEWVAEIRLKSNNYVTNYAASVKGRFTISRDDSKNSVYLQMNSLKTEDTGVYYCTRAGYYVPFAYWGQGTLVTVSSASTKGPSVFPLAPCSRSTSESTAALGCLVKDYFPEPVTVSWNSGALTSGVHTFPAVLQSSGLYSLSSVVTVPSSNFGTQTYTCNVDHKPSNTKVDKTVERKCCVECPPCPAPPVAGPSVFLFPPKPKDTLMISRTPEVTCVVVDVSHEDPEVQFNWYVDGVEVHNAKTKPREEQFNSTFRVVSVLTVVHQDWLNGKEYKCKVSNKGLPAPIEKTISKTKGQPREPQVYTLPPSREEMTKNQVSLTCLVKGFYPSDIAVEWESNGQPENNYKTTPPMLDSDGSFFLYSKLTVDKSRWQQGNVFSCSVMHEALHNHYTQKSLSLSPGK
light: QLMLTQSPSASASLGASVKLTCTLSSQHSTYTIEWYQQQPGKGPRYLMELKKEGSHSTGDGIPDRFSGSSSGAERYLTISSLQSEDEADYYCGVGHTIKEQFVYVFGGGTKLTVLGQPKAAPSVTLFPPSSEELQANKATLVCLISDFYPGAVTVAWKADSSPVKAGVETTTPSKQSNNKYAASSYLSLTPEQWKSHRSYSCQVTHEGSTVEKTVAPTECS
B1: in assay [1], the “Fold change in potency from IgG1” value was 1.2 fold; the “Maximal downregulation (% CD33 remaining)” value is 14.3 % CD33 remaining; the “Receptor downregulation, (pM, EC50)” value turned out to be 25.3 pM.

B2: anti-CD33 antibody 6C7H1 (antibody, V domains shown)
VH: EVQLVESGGGLVQPGGSLRLSCAASGFTFSNYCMNWVRQAPGKGLEWVGEIRLKSNNYVTNYAASVKGRFTISRDDSKNSLYLQMNSLKTEDTAVYYCARDGYYVPFAYWGQGTLVTVSS
VL: QLVLTQSPSASASLGASVKLTCTLSSQHSTYTIEWHQQQPEKGPRYLMKLKKDGSHSTGDGIPDRFSGSSSGAERYLTISSLQSEDEADYYCGVGDTIKEQFVYVFGGGTKLTVL
notes: Humanized 6C7; VH/VL only
For B2, the binding result in assay [2] is “no binding (tested: about 1.2 ug/mL)”.

B3: 6C7H10 IgG1 LALAPS (antibody)
chain 1: not shown
chain 2: B2 VL with H36Y, K49E, D53E
In the case of B3, in assay [1], the “Fold change in potency from IgG1” value is 0.58 fold; the “Maximal downregulation (% CD33 remaining)” value was determined as 62.3 % CD33 remaining; the “Receptor downregulation, (pM, EC50)” value worked out at 1350 pM.

B4: 6C7H10 IgG2 (antibody)
chain 1: B1 heavy with G24A, N31E, E33A, A49G
chain 2: B2 VL with H36Y, K49E, D53E
With B4, in assay [1], the “Fold change in potency from IgG1” value is 1.01 fold; the “Maximal downregulation (% CD33 remaining)” value turned out to be 24.2 % CD33 remaining; the “Receptor downregulation, (pM, EC50)” value was 772 pM.

B5: 6C7H10 IgG1 SELF (antibody)
chain 1: not shown
chain 2: B2 VL with H36Y, K49E, D53E
B5: in assay [1], the “Fold change in potency from IgG1” value was 25.8 fold; the “Maximal downregulation (% CD33 remaining)” value came out at 19.6 % CD33 remaining; the “Receptor downregulation, (pM, EC50)” value was 30.1 pM.

B6: 6C7H54 IgG1 PS (antibody)
chain 1: not shown
chain 2: B2 VL with V3M, H36Y, E41G, K49E, D53E, D96H
Turning to B6, in assay [1], the “Fold change in potency from IgG1” value amounted to 2.4 fold; the “Maximal downregulation (% CD33 remaining)” value was 23.9 % CD33 remaining; the “Receptor downregulation, (pM, EC50)” value stood at 12.6 pM.

B7: 6C7H8 IgG1 LALAPS (antibody, V domains shown)
VH: B2 VH with A24G, G49A, L81V, A94G, A99T, D101A
VL: B2 VL with H36Y, K49E, D53E
As for B7, in assay [1], the “Fold change in potency from IgG1” value stood at 0.93 fold; the “Maximal downregulation (% CD33 remaining)” value was found to be 67.4 % CD33 remaining; the “Receptor downregulation, (pM, EC50)” value came to 83.7 pM.

B8: anti-CD33 antibody 6C7H7 (antibody, V domains shown)
VH: B2 VH with A24G, G49A, A99T
VL: B2 VL with V18A, H36Y, L47V, K49E, L82I, Y91I, L112V
notes: Humanized 6C7; VH/VL only
In the case of B8, the binding result in assay [2] was “binds”.

B9: anti-CD33 antibody 6C7H4 (antibody, V domains shown)
VH: B2 VH with A24G, G49A, A99T
VL: B2 VL with H36Y, K49E
notes: Humanized 6C7; VH/VL only
As for B9, the binding result in assay [2] is on record as “binds”.

B10: anti-CD33 antibody 6C7H30 (antibody, V domains shown)
VH: B2 VH with A24G, C33W, G49A, L81V, A94G, A99T, D101A
VL: B2 VL with H36Y, K49E, D53E
notes: VH/VL only
As to B10, the “binding relative to the parental antibodies” value in assay [3] is less than 60%. Moreover, in assay [4], the Kd (commonly the concentration at which binding is half-saturated) stood at 1.27 nM; the koff (commonly the rate constant with which the complex falls apart) came to 0.0059 s⁻¹; the on-rate (kon) (as a rule, the second-order rate constant of association) is 4.65e+06 M⁻¹ s⁻¹.

B11: anti-CD33 antibody 6C7H3 (antibody, V domains shown)
VH: B2 VH
VL: B2 VL with H36Y, K49E
notes: Humanized 6C7; VH/VL only
As to B11, the binding result in assay [2] is listed as “binds”.

B12: anti-CD33 antibody 6C7H10 (antibody, IgG1, V domains shown)
VH: B2 VH with N31E, C33A, L81V, A94G, A99T, D101A
VL: B2 VL with H36Y, K49E, D53E
notes: VH/VL only; also called 6C7H10 IgG1
For B12, in assay [5], the “Fold increase in potency compared to 6C7H5” value was 0.1 fold; the “Maximal reduction in CD33 (% remaining)” value was 21.2 % remaining; the “Receptor downregulation, (EC50) (pM)” value is 778 pM. For the same molecule, in assay [1], the “Maximal downregulation (% CD33 remaining)” value turned out to be 21.2 % CD33 remaining and the “Receptor downregulation, (pM, EC50)” value was found to be 778 pM. In assay [4], the Kd amounted to 0.561 nM, the koff stood at 0.000823 s⁻¹ and the kon is 1.47e+06 M⁻¹ s⁻¹.

B13: anti-CD33 antibody 6C7H53 (antibody, V domains shown)
VH: B2 VH with A24G, C33E, G49A, L81V, A94G, A99T, D101A
VL: B2 VL with L2P, H36Y, K49E, D53E, D96V
notes: VH/VL only
In the case of B13, in assay [6], the “Fold increase in potency compared to 6C7H5” value stood at 1.2 fold and the “Receptor downregulation, (EC50) (pM)” value is 35.4 pM. Also, the EC50 (commonly the concentration that produces a half-maximal response) in assay [7] is 0.18 nM. In assay [8], the 50% effective concentration (EC50) is 25.6 nM, the “Relative maximal binding (cyno/human)” value turned out to be 0.39 and the “Relative potency (human/cyno)” value was 0.01.

B14: anti-CD33 antibody 6C7H19 (antibody, V domains shown)
VH: B2 VH with A24G, C33R, G49A, L81V, A94G, A99T, D101A
VL: B2 VL with H36Y, K49E, D53E
notes: VH/VL only
As to B14, in assay [3], the “binding relative to the parental antibodies” value was less than 60%. For the same molecule, in assay [4], the Kd worked out at 0.238 nM, the koff was found to be 0.00114 s⁻¹ and the kon came out at 4.79e+06 M⁻¹ s⁻¹.

B15: anti-CD33 antibody 6C7H6 (antibody, V domains shown)
VH: B2 VH
VL: B2 VL with V18A, H36Y, L47V, K49E, L82I, Y91I, L112V
notes: Humanized 6C7; VH/VL only
As to B15, in assay [2], the binding result was “binds”.

B16: anti-CD33 antibody 6C7H2 (antibody, V domains shown)
VH: B2 VH with A24G, G49A, L81V, A94G, A99T
VL: B2 VL
notes: Humanized 6C7; VH/VL only
Consider B16, for which, in assay [2], the binding result is given as “no binding (tested: about 2 ug/mL)”.
